Test results reported in article doi:10.1101/2020.03.02.972562.

Target: RSC complex (budding yeast (S. cerevisiae) (endogenous in BJ3505)) (UniProt P32597)
Assay: BLI

Chain of UniProt P32597 (P32597 whole entry, looked up, one chain of several): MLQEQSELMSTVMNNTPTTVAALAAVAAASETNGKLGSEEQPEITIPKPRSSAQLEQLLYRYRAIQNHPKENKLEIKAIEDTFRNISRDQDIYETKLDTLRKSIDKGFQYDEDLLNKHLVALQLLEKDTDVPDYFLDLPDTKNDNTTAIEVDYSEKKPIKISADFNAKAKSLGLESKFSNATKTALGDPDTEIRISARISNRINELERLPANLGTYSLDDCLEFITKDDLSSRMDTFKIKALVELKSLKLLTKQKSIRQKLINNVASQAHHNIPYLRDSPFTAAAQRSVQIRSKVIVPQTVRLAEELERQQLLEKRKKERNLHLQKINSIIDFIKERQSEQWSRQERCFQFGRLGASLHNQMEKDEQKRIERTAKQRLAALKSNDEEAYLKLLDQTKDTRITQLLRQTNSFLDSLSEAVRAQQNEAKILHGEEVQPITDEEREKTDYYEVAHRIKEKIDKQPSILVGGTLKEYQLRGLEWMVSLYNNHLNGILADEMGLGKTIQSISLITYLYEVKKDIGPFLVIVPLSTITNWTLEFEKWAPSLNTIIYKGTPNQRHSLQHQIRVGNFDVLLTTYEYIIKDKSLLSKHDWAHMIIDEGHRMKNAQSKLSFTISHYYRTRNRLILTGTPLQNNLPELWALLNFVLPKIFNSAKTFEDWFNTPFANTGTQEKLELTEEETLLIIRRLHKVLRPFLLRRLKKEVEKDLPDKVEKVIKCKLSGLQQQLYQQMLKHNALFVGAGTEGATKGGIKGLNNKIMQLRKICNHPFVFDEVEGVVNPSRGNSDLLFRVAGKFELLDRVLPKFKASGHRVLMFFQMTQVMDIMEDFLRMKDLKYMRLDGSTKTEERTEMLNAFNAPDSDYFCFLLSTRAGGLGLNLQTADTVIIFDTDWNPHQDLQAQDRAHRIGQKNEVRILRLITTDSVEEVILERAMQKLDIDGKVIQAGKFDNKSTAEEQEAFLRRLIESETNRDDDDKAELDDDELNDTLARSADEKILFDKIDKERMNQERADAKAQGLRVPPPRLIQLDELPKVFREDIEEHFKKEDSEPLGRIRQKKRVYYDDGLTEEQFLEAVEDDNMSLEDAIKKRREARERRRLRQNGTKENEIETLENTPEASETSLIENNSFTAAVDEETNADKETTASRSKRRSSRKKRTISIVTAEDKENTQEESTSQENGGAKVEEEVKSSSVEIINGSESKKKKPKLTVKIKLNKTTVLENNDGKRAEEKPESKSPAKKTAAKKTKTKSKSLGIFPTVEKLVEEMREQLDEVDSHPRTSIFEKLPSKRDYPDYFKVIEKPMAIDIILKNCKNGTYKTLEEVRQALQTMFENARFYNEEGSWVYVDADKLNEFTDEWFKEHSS

Q: Which fold affinity against unmodified NCPs does the source give for “SUMOylated nucleosome core particles (from UniProt P68431 1-136; P62805 1-103; P04908 1-130; P02281 6-126) (complex)” here?
A: 2 fold
